The target in experiment [1] is full-length 26 kDa (227 amino acids) OSM (human). The experiment in a line: SPR. In general terms: Surface plasmon resonance follows binding to a sensor surface in real time, without labels.
In experiment [2] the target is 22 kDa (196 amino acids) OSM (human) (UniProt P13725). The experiment in a line: SPR.
22 kDa (196 amino acids) OSM (human), sequence (P13725 26-221): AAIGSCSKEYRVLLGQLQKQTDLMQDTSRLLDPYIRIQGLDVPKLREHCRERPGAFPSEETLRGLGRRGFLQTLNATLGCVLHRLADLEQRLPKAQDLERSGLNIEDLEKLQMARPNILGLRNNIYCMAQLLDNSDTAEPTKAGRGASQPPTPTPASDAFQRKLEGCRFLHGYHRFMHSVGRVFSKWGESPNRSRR

fibronectin, P02751 32-2477 (natural protein; ; other documents disagree on this pair), sequence (P02751 32-2477): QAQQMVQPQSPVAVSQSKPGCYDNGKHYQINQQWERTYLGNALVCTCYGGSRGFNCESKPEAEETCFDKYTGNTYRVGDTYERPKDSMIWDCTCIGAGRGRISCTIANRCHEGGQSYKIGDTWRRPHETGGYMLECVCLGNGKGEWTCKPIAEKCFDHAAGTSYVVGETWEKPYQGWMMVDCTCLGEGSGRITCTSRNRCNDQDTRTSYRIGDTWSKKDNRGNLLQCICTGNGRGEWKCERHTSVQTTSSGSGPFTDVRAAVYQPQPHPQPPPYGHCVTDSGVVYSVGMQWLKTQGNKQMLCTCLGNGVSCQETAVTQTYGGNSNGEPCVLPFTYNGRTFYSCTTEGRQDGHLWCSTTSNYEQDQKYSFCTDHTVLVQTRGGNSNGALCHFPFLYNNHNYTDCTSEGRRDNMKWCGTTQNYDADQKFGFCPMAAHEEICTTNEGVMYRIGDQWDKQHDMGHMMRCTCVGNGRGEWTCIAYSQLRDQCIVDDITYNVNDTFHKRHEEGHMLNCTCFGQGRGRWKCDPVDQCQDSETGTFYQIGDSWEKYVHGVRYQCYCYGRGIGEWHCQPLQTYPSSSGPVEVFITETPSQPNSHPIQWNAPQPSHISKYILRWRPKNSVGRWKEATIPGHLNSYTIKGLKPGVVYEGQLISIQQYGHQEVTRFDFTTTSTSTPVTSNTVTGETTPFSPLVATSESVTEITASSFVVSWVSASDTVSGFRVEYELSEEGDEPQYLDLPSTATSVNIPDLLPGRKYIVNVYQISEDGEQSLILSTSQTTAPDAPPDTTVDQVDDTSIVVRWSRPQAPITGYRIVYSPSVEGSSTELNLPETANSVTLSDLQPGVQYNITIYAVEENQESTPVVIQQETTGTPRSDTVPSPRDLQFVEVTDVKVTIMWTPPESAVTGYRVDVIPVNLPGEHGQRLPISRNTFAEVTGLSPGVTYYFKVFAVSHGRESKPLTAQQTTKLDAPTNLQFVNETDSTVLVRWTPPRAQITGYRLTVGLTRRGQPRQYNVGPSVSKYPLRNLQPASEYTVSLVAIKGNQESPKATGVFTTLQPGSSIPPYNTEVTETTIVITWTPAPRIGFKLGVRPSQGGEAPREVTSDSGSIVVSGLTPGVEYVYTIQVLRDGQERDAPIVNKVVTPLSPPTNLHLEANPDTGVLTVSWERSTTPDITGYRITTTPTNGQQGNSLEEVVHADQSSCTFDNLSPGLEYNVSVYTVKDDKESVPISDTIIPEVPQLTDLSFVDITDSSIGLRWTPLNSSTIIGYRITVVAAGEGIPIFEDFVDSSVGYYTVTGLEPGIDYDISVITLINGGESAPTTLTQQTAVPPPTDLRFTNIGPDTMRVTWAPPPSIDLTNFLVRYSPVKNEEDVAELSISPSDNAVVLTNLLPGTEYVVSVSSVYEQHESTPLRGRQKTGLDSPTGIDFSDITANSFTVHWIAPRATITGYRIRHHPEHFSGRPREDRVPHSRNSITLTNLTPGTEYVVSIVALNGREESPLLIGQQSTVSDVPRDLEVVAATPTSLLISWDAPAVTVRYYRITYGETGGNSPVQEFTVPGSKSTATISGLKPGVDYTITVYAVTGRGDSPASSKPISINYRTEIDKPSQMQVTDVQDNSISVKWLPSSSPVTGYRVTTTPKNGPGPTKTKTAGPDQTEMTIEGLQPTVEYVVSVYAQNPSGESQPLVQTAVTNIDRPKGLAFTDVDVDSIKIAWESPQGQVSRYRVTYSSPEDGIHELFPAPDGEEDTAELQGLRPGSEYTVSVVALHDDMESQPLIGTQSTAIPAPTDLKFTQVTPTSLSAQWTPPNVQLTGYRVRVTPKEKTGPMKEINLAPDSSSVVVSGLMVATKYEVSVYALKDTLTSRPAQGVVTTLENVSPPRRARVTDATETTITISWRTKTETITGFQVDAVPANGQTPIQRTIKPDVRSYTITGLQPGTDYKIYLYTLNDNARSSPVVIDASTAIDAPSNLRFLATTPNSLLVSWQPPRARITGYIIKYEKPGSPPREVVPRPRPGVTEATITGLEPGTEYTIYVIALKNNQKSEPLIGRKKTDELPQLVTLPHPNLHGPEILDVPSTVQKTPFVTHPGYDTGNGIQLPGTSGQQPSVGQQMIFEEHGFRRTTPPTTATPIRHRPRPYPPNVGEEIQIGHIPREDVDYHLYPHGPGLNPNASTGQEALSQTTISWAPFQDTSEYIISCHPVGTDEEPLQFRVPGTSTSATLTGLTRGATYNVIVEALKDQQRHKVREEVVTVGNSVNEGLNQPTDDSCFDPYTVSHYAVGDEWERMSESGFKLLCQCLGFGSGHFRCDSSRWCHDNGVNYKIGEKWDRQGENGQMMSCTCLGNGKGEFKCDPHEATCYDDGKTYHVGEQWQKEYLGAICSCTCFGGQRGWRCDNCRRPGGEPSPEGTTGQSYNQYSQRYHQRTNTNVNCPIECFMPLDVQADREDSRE

Consider “fibronectin, P02751 32-2477 (natural protein; ; other documents disagree on this pair)”, for which the Kd (commonly a measure of binding affinity in units of concentration) in experiment [1] is 1170 µM.
On to laminin (complex), for which the Kd in experiment [2] stood at 0.936 µM; in experiment [1] it was 0.844 µM.

The record behind these values is article PMC4328881.
